Publication PMC7101348, “Modulation of BIN2 kinase activity by HY5 controls hypocotyl elongation in the light” (Nature Communications, 2020)

Key:
[1] = target: T1, His-BIN2 (full-length BIN2) (Arabidopsis thaliana, UniProt Q39011 1-380); experiment: cell-based or functional assay
T1 sequence (looked up): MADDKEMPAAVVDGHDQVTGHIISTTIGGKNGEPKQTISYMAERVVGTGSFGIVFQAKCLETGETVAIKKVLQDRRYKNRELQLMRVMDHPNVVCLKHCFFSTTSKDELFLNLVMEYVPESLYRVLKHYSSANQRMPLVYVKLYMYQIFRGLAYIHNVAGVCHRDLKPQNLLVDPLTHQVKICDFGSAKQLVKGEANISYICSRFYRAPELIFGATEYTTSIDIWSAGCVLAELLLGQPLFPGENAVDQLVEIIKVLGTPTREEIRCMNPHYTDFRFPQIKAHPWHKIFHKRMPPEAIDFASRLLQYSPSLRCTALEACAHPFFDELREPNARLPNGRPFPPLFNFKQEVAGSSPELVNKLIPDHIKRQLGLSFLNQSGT

[2] = target: T1, His-BIN2 (full-length BIN2); experiment: pull-down; 1 μg GST-HY5 and 1 μg His-BIN2 in 1 ml binding buffer (25 mM Tris-Cl pH 7.5, 100 mM NaCl, 0.1% NP40), 4 °C; GST beads; washed with 25 mM Tris-Cl pH 7.5, 500 mM NaCl; blots with anti-GST and anti-His; settings: both partners purified

B1: GST-HY5 (full-length HY5, HY5-F) (natural protein, Arabidopsis thaliana, UniProt O24646 1-168, looked up)
chain: MQEQATSSLAASSLPSSSERSSSSAPHLEIKEGIESDEEIRRVPEFGGEAVGKETSGRESGSATGQERTQATVGESQRKRGRTPAEKENKRLKRLLRNRVSAQQARERKKAYLSELENRVKDLENKNSELEERLSTLQNENQMLRHILKNTTGNKRGGGGGSNADASL
In the case of B1, the “in vitro kinase assay: BIN2-mediated phosphorylation of BZR1 with recombinant full-length HY5 (HY5-F) added, against the control” value [1] is reported as roughly 2 fold.

B2: GST-HY5-C (HY5 aa 78-168) (domain or fragment, Arabidopsis thaliana, UniProt O24646 78-168, looked up)
chain: RKRGRTPAEKENKRLKRLLRNRVSAQQARERKKAYLSELENRVKDLENKNSELEERLSTLQNENQMLRHILKNTTGNKRGGGGGSNADASL
With B2 the “in vitro kinase assay: BIN2-mediated phosphorylation of BZR1 with recombinant C-terminal domain of HY5 (HY5-C) added, against the control” value [1] was roughly 2 fold.

B3: GST-HY5-M (HY5 L137D) (natural protein, Arabidopsis thaliana, UniProt O24646 1-168, looked up)
chain: MQEQATSSLAASSLPSSSERSSSSAPHLEIKEGIESDEEIRRVPEFGGEAVGKETSGRESGSATGQERTQATVGESQRKRGRTPAEKENKRLKRLLRNRVSAQQARERKKAYLSELENRVKDLENKNSELEERLSTDQNENQMLRHILKNTTGNKRGGGGGSNADASL
notes: HY5, Arabidopsis, with Leu137 changed to Asp; Probably full-length HY5; also called mutated HY5; source: recombinant protein, purified
B3: binds [2].
